Results published in patent US20020103123A1.
Where “and” joins values, the source holds several entries; their conditions need not be identical. Equal values may be shown once. Read-outs that look alike come from different tables or passages of the source. One block for each substance: values may come before it.

Columns and labels:
[1] = molecular target: T1, rat hypothalamic Y5 receptor (rat); test: 125I-PYY displacement, COS-7 membranes
T1 sequence: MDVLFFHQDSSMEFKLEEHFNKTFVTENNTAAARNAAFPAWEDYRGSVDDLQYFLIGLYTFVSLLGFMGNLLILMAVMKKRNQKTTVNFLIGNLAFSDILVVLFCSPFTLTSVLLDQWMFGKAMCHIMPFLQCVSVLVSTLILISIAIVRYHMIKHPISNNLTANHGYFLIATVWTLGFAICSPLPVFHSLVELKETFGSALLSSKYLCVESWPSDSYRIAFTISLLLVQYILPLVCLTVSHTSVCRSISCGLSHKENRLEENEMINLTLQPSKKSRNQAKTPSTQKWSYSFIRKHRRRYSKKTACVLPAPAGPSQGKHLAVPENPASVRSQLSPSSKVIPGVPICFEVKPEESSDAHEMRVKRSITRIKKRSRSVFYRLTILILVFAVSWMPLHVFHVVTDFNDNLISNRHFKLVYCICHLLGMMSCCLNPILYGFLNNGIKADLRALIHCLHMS

rat Y2 receptor (rat) [2] = molecular target: rat Y2 receptor (rat) (UniProt Q9ERC0); test: 125I-PYY displacement, COS-7 membranes
rat Y1 receptor (rat) [3] = molecular target: rat Y1 receptor (rat) (UniProt P21555); test: 125I-PYY displacement, COS-7 membranes
rat Y4 receptor (rat) [4] = molecular target: rat Y4 receptor (rat) (UniProt Q63447); test: 125I-PYY displacement, COS-7 membranes
Chain of rat Y4 receptor (rat) (Q63447 whole entry): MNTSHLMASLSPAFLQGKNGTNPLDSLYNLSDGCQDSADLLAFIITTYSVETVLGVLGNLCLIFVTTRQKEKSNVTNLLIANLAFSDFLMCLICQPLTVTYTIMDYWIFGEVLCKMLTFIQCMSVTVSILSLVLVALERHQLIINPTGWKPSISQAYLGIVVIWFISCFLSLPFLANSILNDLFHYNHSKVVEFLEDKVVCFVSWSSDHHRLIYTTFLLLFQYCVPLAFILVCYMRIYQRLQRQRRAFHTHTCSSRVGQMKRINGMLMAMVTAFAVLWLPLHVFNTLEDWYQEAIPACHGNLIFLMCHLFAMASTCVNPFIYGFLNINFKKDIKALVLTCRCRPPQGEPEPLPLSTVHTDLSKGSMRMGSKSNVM

[5] = molecular target: T1, rat hypothalamic Y5 receptor (rat)
[6] = molecular target: membranes from rat hypothalamus; test: 125I-PYY displacement, rat hypothalamic membranes
[7] = molecular target: human hippocampal Y5 receptor (human)
[8] = molecular target: T1, rat hypothalamic Y5 receptor (rat); test: 125I-PYY displacement, COS-7 membranes; remark: listed apart in the source
rat Y2 receptor (rat) [9] = molecular target: rat Y2 receptor (rat) (UniProt Q9ERC0); test: 125I-PYY displacement, COS-7 membranes; remark: listed apart in the source
[10] = molecular target: human Y1 receptor (human) (UniProt P25929); test: 125I-PYY displacement, COS-7 membranes
rat Y4 receptor (rat) [11] = molecular target: rat Y4 receptor (rat) (UniProt Q63447); test: 125I-PYY displacement, COS-7 membranes; remark: listed apart in the source
[12] = molecular target: human Y2 receptor (human) (UniProt P49146); test: 125I-PYY displacement, COS-7 membranes
[13] = molecular target: T1, rat hypothalamic Y5 receptor (rat); remark: listed apart in the source
[14] = molecular target: human hippocampal Y5 receptor (human); test: 125I-PYY displacement, LM(tk-) membranes
[15] = molecular target: human hippocampal Y5 receptor (human); test: 125I-PYY displacement, COS-7 membranes
rat Y2 receptor (rat) [16] = molecular target: rat Y2 receptor (rat) (UniProt Q9ERC0); test: 125I-PYY displacement, COS-7 membranes; remark: listed apart in the source
rat Y1 receptor (rat) [17] = molecular target: rat Y1 receptor (rat) (UniProt P21555); test: 125I-PYY displacement, COS-7 membranes; remark: listed apart in the source
[18] = molecular target: human Y1 receptor (human) (UniProt P25929); test: 125I-PYY displacement, COS-7 membranes; remark: listed apart in the source
rat Y4 receptor (rat) [19] = molecular target: rat Y4 receptor (rat) (UniProt Q63447); test: 125I-PYY displacement, COS-7 membranes; remark: listed apart in the source
[20] = molecular target: human Y2 receptor (human) (UniProt P49146); test: 125I-PYY displacement, COS-7 membranes; remark: listed apart in the source
[21] = molecular target: human hippocampal Y5 receptor (human); test: 125I-PYY3-36 displacement, LM(tk-) membranes
[22] = molecular target: human hippocampal Y5 receptor (human); test: 125I-PYY displacement
[23] = molecular target: membranes from rat hypothalamus; test: 125I-PYY displacement, rat hypothalamic membranes; high-affinity part of a two-part curve
[24] = molecular target: human Y4 receptor (human) (UniProt P50391); test: 125I-PYY displacement, COS-7 membranes
[25] = molecular target: T1, rat hypothalamic Y5 receptor (rat); test: 125I-PYY displacement, COS-7 membranes; remark: listed apart in the source
[26] = molecular target: T1, rat hypothalamic Y5 receptor (rat); test: saturation binding, isotonic buffer, room temperature, COS-7 membranes
[27] = molecular target: T1, rat hypothalamic Y5 receptor (rat); test: time course, 0.08 nM radioligand, room temperature, 10 mM Na+
[28] = molecular target: T1, rat hypothalamic Y5 receptor (rat); test: time course, 0.08 nM radioligand, room temperature, 138 mM Na+
[29] = molecular target: human hippocampal Y5 receptor (human); remark: listed apart in the source
[30] = molecular target: human hippocampal Y5 receptor (human); remark: listed apart in the source
[31] = molecular target: human hippocampal Y5 receptor (human); test: 125I-PYY displacement, COS-7 membranes; remark: listed apart in the source

Substance: avian PP (peptide)
- Ki (rat Y2 receptor (rat) [2]): > 1000 nM

Substance: frog NPY (melanostatin) (peptide)
- Ki [1]: 0.71 nM
- Ki (rat Y2 receptor (rat) [2]): 0.65 nM
- Ki (rat Y1 receptor (rat) [3]): 0.09 nM

Substance: human NPY2-36 (from UniProt P01303) (peptide)
- inhibition of forskolin-stimulated cAMP accumulation, EC50 [5]: 2 nM
- maximum inhibition of forskolin-stimulated cAMP accumulation (Emax) [5]: 84%
- IC50 [6]: 2.3 nM

Substance: human PP2-36 (from UniProt P01298) (peptide)
- inhibition of forskolin-stimulated cAMP accumulation, EC50 [7]: 2 nM

Substance: human PP (from UniProt P01298) (peptide)
- % inhibition of cAMP accumulation relative to human NPY [7]: 96%
- inhibition of forskolin-stimulated cAMP accumulation, EC50 [7]: 14 nM

Substance: human [Ile^31, Gln^34]PP (from UniProt P01298) (peptide)
- Ki [15]: 2 nM
- inhibition of forskolin-stimulated cAMP accumulation, EC50 [7]: 5.6 nM

Substance: porcine NPY3-36, P01304 (peptide; other documents disagree on this pair)
- Ki (rat Y4 receptor (rat) [4]): 36 nM

Substance: rat/human NPY (from UniProt P01303) (peptide)
- intracellular free calcium concentration (Fura-2) [29]: 34 nM
- inhibition of forskolin-stimulated cAMP, EC50, LM(tk-) cells [30]: 2.4 nM
- inhibition of forskolin-stimulated cAMP, EC50, NIH-3T3 cells [30]: 8.5 nM
- maximum inhibition of forskolin-stimulated cAMP (Emax), LM(tk-) cells [30]: 72%
- maximum inhibition of forskolin-stimulated cAMP (Emax), NIH-3T3 cells [30]: 42%
- inhibition of forskolin-stimulated cAMP accumulation, EC50 [5]: 1.8 nM
- maximum inhibition of forskolin-stimulated cAMP accumulation (Emax) [5]: 67%
- IC50 [6]: 0.82 nM
- inhibition of forskolin-stimulated cAMP accumulation, EC50 [7]: 2.7 nM

Substance: rat/human NPY, P01303 (peptide; carboxy terminal amide; other documents disagree on this pair)
- Ki (rat Y4 receptor (rat) [4]): 1.7 nM

The remaining lines, values ahead:

- Ki [1]: 8700 nM
Substance: W(nor-L)RF-amide (peptide)

- Ki [1]: > 550 nM
- Ki (rat Y2 receptor (rat) [2]): > 980 nM
- Ki (rat Y1 receptor (rat) [3]): 720 nM
- Ki (rat Y4 receptor (rat) [4]): > 1000 nM
Substance: frog PP (rana temporaria) (peptide)

- Ki (rat Y4 receptor (rat) [4]): 5 nM
Substance: human NPY2-36, P01303 (peptide; other documents disagree on this pair)

- Ki (rat Y4 receptor (rat) [4]): > 1000 nM
Substance: human NPY free acid, P01303 (peptide; free carboxylic acid at the carboxy terminus instead of the amide; other documents disagree on this pair)

- inhibition of forskolin-stimulated cAMP accumulation, EC50 [5]: 4.9 nM
- inhibition of forskolin-stimulated cAMP accumulation, EC50 [7]: 18 nM
Substance: human PYY3-36 (from UniProt P10082) (peptide)

- IC50 [6]: 1.3 nM
- % inhibition of cAMP accumulation relative to human NPY [7]: 111%
- inhibition of forskolin-stimulated cAMP accumulation, EC50 [7]: 4.9 nM
Substance: human PYY (from UniProt P10082) (peptide)

- Ki [8]: 53 nM
- Ki (rat Y2 receptor (rat) [9]): > 1000 nM
- Ki [10]: > 1000 nM
- Ki (rat Y4 receptor (rat) [11]): > 1000 nM
- Ki [12]: > 1000 nM
- inhibition of forskolin-stimulated cAMP accumulation, EC50 [13]: 7.5 nM and 25 nm
- Ki [14]: 16 nM
- inhibition of forskolin-stimulated cAMP accumulation, EC50 [5]: 9.5 nM
- maximum inhibition of forskolin-stimulated cAMP accumulation (Emax) [5]: 72%
- Ki [15]: 35 nM
- Ki (rat Y2 receptor (rat) [16]): > 500 nM
- Ki (rat Y1 receptor (rat) [17]): > 500 nM
- Ki [18]: > 500 nM
- Ki (rat Y4 receptor (rat) [19]): > 500 nM
- Ki [20]: > 500 nM
- Ki [1]: 35 nM
- Ki (rat Y2 receptor (rat) [2]): 760 nM
- Ki (rat Y1 receptor (rat) [3]): > 1000 nM
- Ki (rat Y4 receptor (rat) [4]): > 630 nM
- Ki [21]: 10 nM
- Ki [22]: 18 nM
- inhibition of forskolin-stimulated cAMP accumulation, EC50 [7]: 26 nM
Substance: human [D-Trp^32]NPY (from UniProt P01303) (peptide)

- Ki [12]: > 130 nM
- inhibition of forskolin-stimulated cAMP accumulation, EC50 [5]: 0.6 nM
- maximum inhibition of forskolin-stimulated cAMP accumulation (Emax) [5]: 70%
- Ki [1]: 1 nM
- Ki (rat Y2 receptor (rat) [2]): > 1000 nM
- Ki (rat Y1 receptor (rat) [3]): 0.1 nM
- Ki (rat Y4 receptor (rat) [4]): 0.59 nM
- inhibition of forskolin-stimulated cAMP accumulation, EC50 [7]: 3 nM
- IC50 [23]: 0.21 nM
Substance: human [Leu^31, Pro^34]NPY (from UniProt P01303) (peptide)

- Ki [8]: 470 nM
- Ki [10]: 79 nM
- Ki [24]: 120 nM
- Ki [12]: 3.5 nM
- Ki [14]: 260 nM
- inhibition of forskolin-stimulated cAMP accumulation, EC50 [5]: 240 nM
- Ki [15]: 370 nM
- Ki [25]: 260 nM
- Ki [1]: > 260 nM
- Ki (rat Y2 receptor (rat) [2]): 2.6 nM
- Ki (rat Y1 receptor (rat) [3]): 140 nM
- Ki (rat Y4 receptor (rat) [4]): 22 nM
- Ki [21]: 220 nM
Substance: porcine C2-NPY (peptide)

- Ki (rat Y2 receptor (rat) [2]): 840 nM
- Ki (rat Y1 receptor (rat) [3]): 0.25 nM
- Ki (rat Y4 receptor (rat) [4]): 0.32 nM
Substance: porcine [Leu^31, Pro^34]NPY (from UniProt P01304) (peptide)

- Kd [26]: 0.072 nM
- pKd [26]: 10.1
- maximal specific binding [27]: 480 fmol/mg
- observed association rate (Kobs) [27]: 0.042 min⁻¹
- t1/2 of association [27]: 17 min
- maximal specific binding [28]: 330 fmol/mg
- observed association rate (Kobs) [28]: 0.029 min⁻¹
- t1/2 of association [28]: 24 min
Substance: porcine ^125I-[Leu^31, Pro^34]PYY (from UniProt P68005) (peptide)

- Ki [31]: 0.46 nM
- Ki [8]: 0.31 nM
- Ki [10]: 0.11 nM
- Ki [24]: 3.2 nM
- Ki [12]: 0.17 nM
- inhibition of forskolin-stimulated cAMP accumulation, EC50 [5]: 0.92 nM
- Ki [15]: 0.27 nM
- Ki [1]: 0.33 nM
- Ki (rat Y2 receptor (rat) [2]): 0.16 nM
- Ki (rat Y1 receptor (rat) [3]): 0.3 nM
- Ki (rat Y4 receptor (rat) [4]): 3 nM
- Ki [21]: 0.63 nM
- % inhibition of cAMP accumulation relative to human NPY [7]: 96%
- inhibition of forskolin-stimulated cAMP accumulation, EC50 [7]: 4.5 nM
Substance: salmon PP (peptide)
